Laboratory results from US20100330094A1 (NOVIMMUNE S A, published 2010).

T1: native human IP-10 (hIP-10) (human, UniProt P02778 22-98)
T1 sequence (looked up): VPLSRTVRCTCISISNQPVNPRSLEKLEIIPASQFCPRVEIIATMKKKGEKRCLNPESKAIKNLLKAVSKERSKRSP

T2: recombinant human IP-10 (hIP-10) (human, UniProt P02778 22-98)
T2 sequence (looked up): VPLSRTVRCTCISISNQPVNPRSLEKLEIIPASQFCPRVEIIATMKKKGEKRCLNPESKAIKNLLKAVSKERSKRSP

T3: NusA-rat IP-10 fusion protein (rat, UniProt P48973 22-98)
T3 construct: mature; not shown: NusA fusion partner encoded by expression plasmid pET43 (Novagen); vector-encoded linker with Factor X protease cleavage site
T3 sequence (looked up): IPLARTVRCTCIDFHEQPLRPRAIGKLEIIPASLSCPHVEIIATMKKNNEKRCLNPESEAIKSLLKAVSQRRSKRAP

T4: NusA-cynomolgus IP-10 fusion protein (cynomolgus, UniProt A0A2K5WKN6 22-98)
T4 construct: mature; not shown: NusA fusion partner encoded by expression plasmid pET43 (Novagen); vector-encoded linker with Factor X protease cleavage site
T4 sequence: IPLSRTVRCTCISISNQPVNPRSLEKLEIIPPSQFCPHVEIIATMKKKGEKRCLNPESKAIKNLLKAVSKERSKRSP

T5: NusA-hIP-10 fusion protein (human, UniProt P02778 22-98)
T5 construct: mature; not shown: NusA fusion partner encoded by expression plasmid pET43 (Novagen); vector-encoded linker with Factor X protease cleavage site at the C-terminus of NusA; AviTag biotinylation site (Avidity) at the C-terminus of the chemokine
T5 sequence (looked up): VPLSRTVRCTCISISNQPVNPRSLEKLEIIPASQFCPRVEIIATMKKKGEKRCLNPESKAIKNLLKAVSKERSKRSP

T6: NusA-mouse IP-10 fusion protein (mouse, UniProt P17515 22-98)
T6 construct: mature; not shown: NusA fusion partner encoded by expression plasmid pET43 (Novagen); vector-encoded linker with Factor X protease cleavage site
T6 sequence (looked up): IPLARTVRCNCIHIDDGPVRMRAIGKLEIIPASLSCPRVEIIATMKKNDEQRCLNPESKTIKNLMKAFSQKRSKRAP

T7: hIP-10 immobilized on glycosaminoglycan (FITC-labeled heparin) (human, UniProt P02778 22-98)
T7 construct: mature; also called hIP-10 on GAG; hIP-10 immobilized on GAG
T7 sequence (looked up): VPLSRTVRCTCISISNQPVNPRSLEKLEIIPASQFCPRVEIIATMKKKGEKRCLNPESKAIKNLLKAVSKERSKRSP


Assays:
[1] = molecular target: T1, native human IP-10 (hIP-10); test: cell-based or functional assay
[2] = molecular target: T2, recombinant human IP-10 (hIP-10); test: cell-based or functional assay
[3] = molecular target: T2, recombinant human IP-10 (hIP-10); test: SPR (Biacore 2000)
Experimental: (§1) 200RU (response unit) of a goat anti-human polyclonal IgG (ahIgG; Biacore AB, Uppsala, Sweden) were immobilized by EDC/NHS chemistry on a C1 Biacore chip. […] The surface was regenerated after each cycle by injection of 10 mM glycine pH=1.5 at 30 μL/min, for 30s followed by 1 min. of stabilization time in HBS-EP buffer.
(§2) Binding was measured by passing either hIP-10 (Peprotech, Rocky Hill N.J.) or a NusA-hIP-10 fusion protein at the following concentrations: 34.7 nM, 11.6 nM, 3.85 nM, 1.28 nM, 0.428 nM, 0.142 nM and 0 nM. All solutions were diluted in HBS-EP buffer (Biacore AB, Uppsala, Sweden). Injection was performed at 50 μl/min for 3 min. followed by 12 min. of dissociation time and the temperature was set at 25° C. […] Very similar values were obtained using rhIP-10 or the NusA-hIP-10 fusion, but better response signals were obtained with the fusion protein due to its larger size that induces a better response on the Biacore.

[4] = molecular target: T3, NusA-rat IP-10 fusion protein; test: capture ELISA: NI-0801 coated, concentration range of NusA fusion protein, revealed with anti-NusA antibody
From the text: (§3) Briefly, IP-10 cloned from cDNA isolated from mouse, rat, rabbit and cynomolgus as well as a panel of human chemokines was expressed and purified as described in Example 1.

[5] = molecular target: T4, NusA-cynomolgus IP-10 fusion protein; test: as above
From the text: as §3

[6] = molecular target: T5, NusA-hIP-10 fusion protein; test: as above
From the text: as §3

[7] = molecular target: T6, NusA-mouse IP-10 fusion protein; test: as above
From the text: as §3

[8] = molecular target: T2, recombinant human IP-10 (hIP-10); test: SPR (Biacore 2000): IgG1 captured on anti-human IgG, IP-10 in solution, 25 C, 1:1 Langmuir fit
Experimental: as §1, §2

[9] = molecular target: T7, hIP-10 immobilized on glycosaminoglycan …; test: capture assay: IgG captured on coated anti-human Fc, FITC-heparin pre-incubated with hIP-10 added, revealed with HRP-coupled anti-FITC Fab
Experimental: As with many chemokines, hIP-10 is able to oligomerize and bind to glycosaminoglycans (GAG) expressed at surface of cells such as endothelial cells. In order to make sure that the antibodies were able to bind to hIP-10 in this context, they were tested in the following assay. Maxisorb 96 well plates were coated with anti-human Fc (Jackson, West Grove, Pa.) as capturing reagent for the human IgG to be tested. FITC-labeled heparin (Sigma, St. Louis, Mo.) was used as a prototypic GAG and was incubated with hIP-10 before addition to the captured anti-hIP10 antibodies. […] As shown in FIG. 4 some antibodies were able to bind hIP-10 when bound to GAG whereas others were unable to do so probably because their epitope on hIP-10 was no longer accessible within the oligomeric structure.

Row | Binder | Chemotaxis IC50 (nM); native hIP-10 at 0.6 nM [1] [nM] | Calcium flux IC50 (nM); 10 nM rhIP-10 [2] [nM] | Chemotaxis IC50 (nM); 0.2 nM rhIP-10 [2] [nM] | Chemotaxis IC50 (nM); 1 nM rhIP-10 [2] [nM] | other results
1 | NI-0801, IgG1 format (antibody, V domains shown, Claims 7 and 21 swap the heavy and light chain numbers) VH: QVQLVESGGGVVQPGRSLRLSCAASGFTFSNSGIHWVRQAPGKGLEWVAVISYDGSNKYYADSVKGRFTISRDNSKNTLYLQMNSLRAEDTAVYYCARLRDNAEYTDYWGQGTLVTVSS VL: NFMLTQPHSVSESPGKTVTISCTGSGGSIASNYVQWYQQRPGSSPTTVIYEDNQRPSGVPDRFSGSIDSSSNSASLTISGLKTEDEADYYCQSYDPLPVWVFGGGTKLTVLG | 0.58 | 6.3 | 0.24 |  | fold improvement of affinity over CC21R3P1_F1 [3]: 90 fold; binding result [4]: no binding (tested: about 2e-7 M); EC50 (read off the curve) [5]: ~1 nM; EC50 (read off the curve) [6]: ~3 nM; binding result [7]: no binding (tested: about 2e-7 M); Kd [8]: 0.109 nM
2 | CF1H1R3P3_G11, IgG1 format (antibody, V domains shown) VH: QVQLVESGGGVVQPGRSLRLSCAASGFTFSNSGIHWVRQAPGKGLEWVAVISYDGSNKFYADSVKGRFTISRDNSKNTLYLQMNSLRAEDTAVYYCAKLRDNGEYLDYWGQGTLVTVSS VL: NFMLTQPHSVSESPGKTVTISCTGSGGSIDRNYVQWYQQRPGSSPTTVIYEDNQRPSGVPDRFSGSIDSSSNSASLTISGLKTEDEADYYCQSYDPLPVWVFGGGTKLTVL | 1.9 | 7.9 | 0.2 |  | 
3 | CF1N1R3P4_C7, IgG1 format (antibody, V domains shown) VH: QVQLVESGGGVVQPGRSLRLSCAASGFTFSNSGIHWVRQAPGKGLEWVAVISYDGSNKFYADSVKGRFTISRDNSKNTLYLQMNSLRAEDTAVYYCAKLRDNAEYTDYWGQGTLVTVSS VL: NFMLTQPHSVSESPGKTVTISCTGSGGSIDRNYVQWYQQRPGSSPTTVIYEDNQRPSGVPDRFSGSIDSSSNSASLTISGLKTEDEADYYCQSYDPLPVWVFGGGTKLTVL | 0.64 | 4.1 | 0.19 |  | 
4 | CF1H1R3P4_B5, IgG1 format (antibody, V domains shown) VH: QVQLVESGGGVVQPGRSLRLSCAASGFTFSNSGIHWVRQAPGKGLEWVAVISYDGSNKFYADSVKGRFTISRDNSKNTLYLQMNSLRAEDTAVYYCAKLRDNGEYLDYWGQGTLVTVSS VL: NFMLTQPHSVSESPGKTVTISCTGSGGSIDRNYVQWYQQRPGSSPTTVIYEDNQRPSGVPDRFSGSIDSSSNSASLTISGLKTEDEADYYCQSYVETPEWVFGGGTKLTVL | 1.2 | 4.7 | 0.42 |  | 
5 | CF1A11R3P3_F3, IgG1 format (antibody, V domains shown) VH: QVQLVESGGGVVQPGRSLRLSCAASGFTFSNSGIHWVRQAPGKGLEWVAVISYDGSNKFYADSVKGRFTISRDNSKNTLYLQMNSLRAEDTAVYYCAKLRDNGEYLDYWGQGTLVTVSS VL: NFMLTQPHSVSESPGKTVTISCTGSGGSIDRNYVQWYQQRPGSAPITVIYEDNQRPSGVPDRFSGSIDSSSNSASLTISGLRTDDEADYYCQSYDSINLWVFGGGTKVTVL | 1.7 | 5.9 | 0.69 |  | 
6 | CB2R2P4_C3, IgG1 format (antibody, V domains shown) VH: QVTLRESGPALVKPTQTLTLTCTFSGFSLTTSGMSVIWIRQPPGKALEWLARIDSDDEKHYNTSLKTRLAISKDTSKNQVVLTMTNMDPVDTGTYYCARLRAGSGPYVFDSWGQGTTVTVSS VL: QSVLTQPPSASGTPGQRVTISCSGSSSNIGSNTVNWYQRLPGAAPQLLIYNNDQRPSGIPDRFSGSKSGTSGSLVISGLQSEDEADYYCASWDDSLNGRVFGGGTKLTVL |  | > 200 |  | 33 | 

The next lines start with results.

Row | Chemotaxis IC50 (nM); native hIP-10 at 0.6 nM [1] [nM] | Calcium flux IC50 (nM); 10 nM rhIP-10 [2] [nM] | Chemotaxis IC50 (nM); 0.2 nM rhIP-10 [2] [nM] | Chemotaxis IC50 (nM); 1 nM rhIP-10 [2] [nM] | Binder | other results
7 |  | > 200 |  | 56 | CC21R3P1_E7, IgG1 format (antibody, V domains shown) VH: QLVESGGGVVQPGRSLRLSCAASGFTFSTYGMHWVRQAPGKGLEWVAVISYDGGTKYYADSVKGRFTISRDNSMKTLYLQMNSLRTEDTAVYYCAKDLGDLPPGLDYWGQGTMVTVSS VL: not shown | 
8 | 6.2 | 9.8 |  | 3.2 | CC21R3P1_A2, IgG1 format (antibody, V domains shown) VH: QLVESGGGLIQPGGSLRLSCAASGFSVSDTYMNWVRQAPGKGLEWVSSIYSDDSTYYADSVKGRFTISRDNSKNTLFLQINSLRAEDTAVYYCARDKEYVTSTGGAYYYFYYMDVWGQGTLVTVSS VL: not shown | binding result [9]: no binding
9 |  | > 200 |  | 157 | CC21R3P4_F4, IgG1 format (antibody, V domains shown) VH: QVQLVESGGGVAHSGKSLRLSCAASGFTFSNYGMHWVRQAPGKGLEWLAVISYDGSNRYYADSVKGRFTISRDNSNNTLNLQMSSLRAEDTALYYCAKDAGGPLDYWGRGTLVTVSS VL: SYVLTQPPSVSVAPGQMARITCGGNNIGDKSVQWYQQRPGQAPLLVVYDDSDRPSGIPERFSGSYSRNTATLTISRVEAGDEADYYCQVWDSSSDHPEVVFGGGTKLTVL | 
10 | 11 | 9.8 |  | 3 | CC21R3P1_F1, IgG1 format (antibody, V domains shown) VH: QVQLVESGGGVVQPGRSHTLSCAASGFAFKNSGIHWVRQAPGKGLEWVAVISYDGSNKFYADSVKGRFTISRDNSQNTVYLQMTDLRPDDTAVYYCARDGSESEYLDYWGKGTLVTVSS VL: NFMLTQPHSVSESPGKTVTISCTGSGGSIDRNYVQWYQQRPGSAPITVIYEDNQRPSGVPDRFSGSIDSSSNSASLTISGLRTDDEADYYCQSYDSINLWVFGGGTKVTVL | Kd [8]: 9.2 nM
11 | 7.8 | 6.2 |  | 8.8 | CB21R3P6_G7, IgG1 format (antibody, V domains shown) VH: QVQLVQSGAEVKKPGSSVTVSCKASGGTFSSFSITWLRQAPGQGLEWMGEITPMFGIANYAQKFQGRVTISADESTSTAYMELSGLTSEDTAMYYCARDGRFDVSDLLTDKPKVTINYNGMDVWGQGTLVTVSS VL: QSVLTQPPSASGTPGQRVTISCSGSSSNIGSNTVNWYQRLPGAAPQLLIYNNDQRPSGIPDRFSGSKSGTSGSLVISGLQSEDEADYYCASWDDSLNGRVFGGGTKLTVL | binding result [9]: no binding
